In patent US20240425603A1 (Janssen / Centocor, published 2024):
“And” between values parts separate entries of the source, which are not always exact repeats. Identical values can stand only once.

T1: NECTIN1 Isoform Gamma (NM_203286.1) (human, UniProt Q15223-3 31-352)
T1 construct: whole, on cells
T1 sequence (looked up): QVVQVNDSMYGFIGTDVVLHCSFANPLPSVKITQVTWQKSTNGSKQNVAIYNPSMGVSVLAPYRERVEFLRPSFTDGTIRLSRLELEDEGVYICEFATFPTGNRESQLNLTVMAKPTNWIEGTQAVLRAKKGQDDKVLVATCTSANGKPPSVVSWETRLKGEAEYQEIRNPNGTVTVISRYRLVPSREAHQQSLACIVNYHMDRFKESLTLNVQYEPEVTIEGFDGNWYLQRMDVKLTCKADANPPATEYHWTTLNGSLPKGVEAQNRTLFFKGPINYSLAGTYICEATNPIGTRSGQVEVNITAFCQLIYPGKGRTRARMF

T2: mouse VEGFR1 (soluble antigen of the KinExA and SPR affinity assays) (mouse, UniProt P35969 23-759, limits assumed)
T2 sequence (looked up): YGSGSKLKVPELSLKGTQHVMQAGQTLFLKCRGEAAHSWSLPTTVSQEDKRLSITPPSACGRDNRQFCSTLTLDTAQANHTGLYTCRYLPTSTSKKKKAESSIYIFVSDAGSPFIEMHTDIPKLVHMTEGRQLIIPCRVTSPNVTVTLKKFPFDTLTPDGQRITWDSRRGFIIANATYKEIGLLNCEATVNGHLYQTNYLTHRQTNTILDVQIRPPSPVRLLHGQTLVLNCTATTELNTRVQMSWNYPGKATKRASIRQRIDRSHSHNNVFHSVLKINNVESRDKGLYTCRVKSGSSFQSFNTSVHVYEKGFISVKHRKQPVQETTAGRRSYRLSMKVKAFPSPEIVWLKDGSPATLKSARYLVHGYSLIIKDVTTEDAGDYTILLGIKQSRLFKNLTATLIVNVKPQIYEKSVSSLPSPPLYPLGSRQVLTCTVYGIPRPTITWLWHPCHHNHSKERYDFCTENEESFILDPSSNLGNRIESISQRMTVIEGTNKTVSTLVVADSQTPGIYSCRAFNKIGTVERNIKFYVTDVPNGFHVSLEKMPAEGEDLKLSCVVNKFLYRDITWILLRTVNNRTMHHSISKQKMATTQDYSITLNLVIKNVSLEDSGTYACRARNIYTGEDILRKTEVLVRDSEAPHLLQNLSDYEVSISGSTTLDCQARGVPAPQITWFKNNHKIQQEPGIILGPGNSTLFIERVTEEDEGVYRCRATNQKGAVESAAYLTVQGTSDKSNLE


Columns and labels:
[1] = target: T1, NECTIN1 Isoform Gamma (NM_203286.1); test: Retrogenix cell microarray, fixed HEK293 cells, 2 ug/mL antibody; topology TS
Procedure: (§1) This human cell microarray methodology has been previously described in the literature (Freeth, J. et al, SLAS Discovery, 25 (2), 223-230, 2020). Primary screening was performed on slides arrayed with fixed HEK293 cells with each spot of HEK293 cells expressing either a unique protein from the cell surface-ome, a cell surface tethered human secreted protein, or a heterodimeric human cell surface receptor. In total, 5,528 unique gene products were represented in this primary screen (4,103 human plasma membrane proteins (+some untethered secreted proteins)+1,425 cell surface tethered human secreted proteins). Briefly, slides containing fixed transfected HEK293 cells were overlaid with a solution of test antibody (2 μg/mL), incubated, and washed. Binding was assessed using AlexaFluor647-conjugated anti-human IgG Fc detection antibody and fluorescence quantitation on ImageQuant. […] Located in the ER, off-target binding to CRELD2 was of less concern. Nectin-1, FGFR2, and ISLR, on the other hand, display broad tissue expression profiles. Cross-reactivity to these proteins is undesirable because binding to these targets might have a significant impact on pharmacokinetic and biodistribution profiles of the molecules. This off-target binding was subsequently confirmed by flow cytometry on live HEK293 cells transiently expressing these ‘off-target’ proteins identified in the primary screen.

[2] = target: T3, cynomolgus monkey VEGFR1, over-expressed on HEK293 cells (cynomolgus monkey); test: flow cytometry, HEK cells over-expressing cyno VEGFR1; competitor biotinylated VEGF A (500 pM)
T3 construct: whole, on cells; also called HEK/ cyno VEGFR1; cynoVEGFR1

[3] = target: His tagged cyno VEGFR1 (cynomolgus monkey, UniProt A0A2K5VAF2 27-758); test: MSD ECL competition on plate-bound His-tagged cyno VEGFR1; competitor biotin human VEGFA165 (0.2 nM)
In short: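 MSD 384 plates were coated with Protein A/G or anti-His mAb, blocked with Blocker A, and used to capture human or mouse VEGFR1-Fc or His-tagged cyno VEGFR1 at 0.5 ug/ml for 1 hour at room temperature. Antibody in half-log dilutions was pre-incubated for 30 minutes, after which biotinylated VEGFA (0.2 nM) or PlGF (2 nM) was added. Bound ligand was detected with Sulfo-tagged streptavidin on an MSD SECTOR S 600 imager, and IC50 and maximal percent inhibition were derived from the electro-chemiluminescence signal.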

[4] = target: T4, cynomolgus monkey VEGFR1 (soluble antigen of the KinExA and SPR affinity assays) (cynomolgus monkey); test: SPR
[5] = target: T1, NECTIN1 Isoform Gamma (NM_203286.1); test: Retrogenix cell microarray, fixed HEK293 cells; blank cells in Table 32 (topology TS and S)
Procedure: as §1

[6] = target: T4, cynomolgus monkey VEGFR1 (soluble …); test: KinExA, solution
Procedure: (§2) Kinetic exclusion assay (KEA; KinExA) was used to analyze the binding of anti-VEGFR1 antibodies to human, mouse and cynomolgus monkeys VEGFR1. KEA is a fluorescence-based solution method, and it is described in detail in the literature (Darling and Brault, 2004). To measure the affinity of an interaction, a series of solutions with a fixed concentration of one interactant (A) and varying concentrations of another interactant (B) are prepared and allowed to reach equilibrium. After equilibration, the concentration of free A is determined by flowing the equilibrated mixture through a column packed with beads modified with reactant B. Free A binds to the beads and is then detected using a fluorescently labeled polyclonal antibody.
(§3) Briefly, fixed concentrations (300 pM, 60 pM, 12 pM, 2.4 or 0.5 pM) of Ab were used to prepare a serial dilution of the antigen (2 nM to 0.52 pM, or 800 pM to 5.37 fM). The complex titrations were incubated at RT to reach binding equilibrium for at least 2 days. After incubation, the samples were run on the KinExA3200 or KinExA4000 instrument to assess free antibody in the reaction. During these studies some of the data were rejected because the experiments failed or failed the acceptance criteria. For mouse VEGFR1 the 60 and 300 pM concentrations were rejected due to high titrant related NSB. The dissociation equilibrium constant, (KD), was determined using the n-curve analysis feature of the KinExA Pro software. This program uses nonlinear least-square regression analysis of the globally fitted data to a 1:1 binding model. (CI=confidence interval).

[7] = target: T2, mouse VEGFR1 (soluble antigen of the …); test: KinExA, solution
Procedure: as §2, §3

Binder | binding result [1] | IC50 [2] [pM] | IC50 [3] [pM] | Max % Inh. [3] [%] | Kd [4] | binding result [5] | Kd [6] [pM] | Kd [7] [pM]
VGFB71 (antibody, human IgG1, lambda, L234A L235A, V domains shown, human IgG1 (L234A/L235A/D265S)) VH: EVQLLESGGGLVQPGGSLRLSCEASGFIFRDYNMNWVRQAPGKGLEWVSIITNDGSSTAYSDSVKGRFTISRDNSKNSLYLQMNSLRAEDTAIYYCVKVYYGMDDWGQGTTVTVSS VL: not shown | binds | 95.7 |  |  |  |  |  | 
VGFB54 (antibody, human IgG1, lambda, L234A L235A, V domains shown, human IgG1 (L234A/L235A/D265S), lambda, 2H:2L; from OmniChicken) VH: EVQLLESGGGSVQPGGSLRLSCTASGFNFEDYGMNWVRQAPGKGLDWVSSINRNGDISTYHVDSVKGRFTISRDNSKNTLYLQMNSLRAEDTAIYYCTKNHDYHGMDVWGQGTTVTVSS VL: not shown |  | 87.6 | 89 | 98.6 | 16 pM and 18 pM | no binding (tested: 2 µg/mL) |  | 
VGFB78 (antibody, human IgG1, lambda, L234A L235A, V domains shown, human IgG1 (L234A/L235A/D265S)) VH: EVQLLESGGGLVQPGGSLRLSCAASSFTFYNYDMTWVRQAPGKGLEWVAGIGTSGTDMYYADSVKGRFTISRDNSKNTLYLQMNSLRAEDTAIYYCAKDYYYYGMDVWGLGTTVTVSS VL: not shown |  | 815 | 134 | 98.6 |  |  | 0.71 | 3.85
VGFB82 (antibody, human IgG1, lambda, L234A L235A, V domains shown, human IgG1 (L234A/L235A/D265S)) VH: EVQLLESGGGLVQPGGSLRLSCEASGFDFSTYAMNWVRQAPGKGLEWVATINSEGTITSHAPAVKGRFTISRDNSKNTAYVQMNSLRAEDSAVYYCSSTTGTTHGMDVWGRGTTVTVSS VL: not shown |  | 231 | 81 | 99 | 38 pM and 23 pM | no binding (tested: 2 µg/mL) | 0.3 | 23
